Measured values published in the supplement of paper PMC10567573.

B1: OAS1 (parent)
chain: LQLGEGVEFDVLPAFDALGQLTGG

Variants of: B1
Assay: protein stability index of a GFP-peptide fusion (GPS, HEK-293T) (PSI 1-6); higher = more stable
Conditions: c terminus: a fixed tail appended
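Further: lentivirally expressed fusions sorted by FACS into six bins by GFP to DsRed ratio, PSI derived from sequencing read proportions per bin multiplied by bin number.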

Protein stability index of substitutions, site by site:
T22: G 2.05, D 1.97, V 1.86, E 2.75, C 2.22, N 1.49
D10: C 2.3, S 2, G 2.03, P 2.53, K 1.99, H 1.5
G4: F 1.17, M 2.36, C 1.38, Q 2.75, K 2.8, I 1.88, S 1.4, H 2.25
E8: Q 1.67, L 1.5, Y 2.67, I 2.37, S 1.99, P 2.09
L18: G 3.58, V 2, C 2.62, S 2.38, T 2.48
V7: F 1.8, P 1.67, R 2.27, I 2.84, A 2.33, Q 2.86, D 2.04, W 2.81, L 3.26
L1: H 4.33, F 2.06, D 4.96, T 3.33, G 4.46, M 2.57, I 1.04
Q2: N 2.41, G 1.74, M 3.19, I 2.81, D 2.84, C 1.04
E5: P 1.93, K 2.09, H 1.68, D 2.24, L 1.02, M 1.15, N 2.09, C 1.25, Q 1.64
F9: S 4.03, K 3.69, R 3.67, M 2.88, E 4.37
V11: P 2.3, W 1.16, A 1.91, I 1.49, E 2.95, L 1.96, N 3.33, Q 3.62, S 2.59, H 2.83
G24: W 1.45, P 1.64, D 1.94, S 1.81, F 1.17, T 1.48, Y 2.55, E 2.31, H 3.16
G6: E 2.38, T 1.55, W 1.74, P 2.94, Y 1.3, D 1.88, I 1.28, A 1.53
L3: E 4.56, F 2.08, N 1.72, I 2.26, A 3.65, G 2.93
D16: S 1.07, H 2.26, T 1.99, R 1.31
G23: V 2.33, F 1.51, P 2.03, A 2.33, D 2.13, M 1.13, L 1.4
F15: R 2.74, E 3.57, V 1.65, T 3.48, W 1.22, L 2.48, G 3.56
A14: C 1.37, N 1.86, H 1.58, K 1.61, T 2.34, D 1.67, Q 2.46, R 1.29
G19: C 2.11, D 2.91, F 1.76, P 1.79, H 1.98, Q 1.61, V 1.45
A17: I 1.53, T 2.6, D 2.14, C 2.01, F 3.94, W 3.13, R 2.05, Q 1.61, Y 2.48, L 1.9
Q20: G 1.82, C 1.29, Y 2.09, N 2.28, R 1.51, I 2.06, F 1.79, T 1.76
L21: A 2.22, F 2.53, V 2.22, P 2.9, N 2.32, Q 3.62, S 2.06, D 3.43
L12: Y 1.72, P 2.48, M 3.1, W 1.13, E 3.98, F 1.54, R 2.69, I 1.64
